# Assay results: PMC4417627 (Biochemistry, 2013)
# Where a chain is given by its changes, count along the chain named. Like-named read-outs stand apart in the source and are kept apart here.
# B1: 5xAla NEMO, recombinant full-length, C-terminal 6xHis (natural protein, human, UniProt Q9Y6K9 1-419, looked up)
# chain: MNRHLWKSQLAEMVQPSGGPAADQDVLGEESPLGKPAMLHLPSEQGAPETLQRCLEENQELRDAIRQSNQILRERAEELLHFQASQREEKEFLMAKFQEARKLVERLGLEKLDLKRQKEQALREVEHLKRAQQQMAEDKASVKAQVTSLLGELQESQSRLEAATKEAQALEGRARAASEQARQLESEREALQQQHSVQVDQLRMQGQSVEAALRMERQAASEEKRKLAQLQVAYHQLFQEYDNHIKSSVVGSERKRGMQLEDLKQQLQQAEEALVAKQEVIDKLKEEAEQHKIVMETVPVLKAQADIYKADFQAERQAREKLAEKKELLQEQLEQLQREYSKLKASCQESARIEDMRKRHVEVSQAPLPPAPAYLSSPLALPSQRRSPPEEPPDFCCPKCQYQAPDMDTLQIHVMECIE
# B2: 7xAla NEMO, recombinant full-length, C-terminal 6xHis (natural protein, human, UniProt Q9Y6K9 1-419, looked up)
# chain: B1 chain with C54A, C347A
# B3: 6xAla NEMO containing Cys54 (Cys54 added back into the 7xAla construct) (natural protein, human, UniProt Q9Y6K9 1-419, looked up)
# chain: B1 chain with C347A
# B4: 6xAla NEMO containing Cys11 (Cys11 added back into the 7xAla construct) (natural protein, human, UniProt Q9Y6K9 1-419, looked up)
# chain: B1 chain with A11C, C54A, C347A
# B5: 6xAla NEMO containing Cys76 (Cys76 added back into the 7xAla construct) (natural protein, human, UniProt Q9Y6K9 1-419, looked up)
# chain: B1 chain with C54A, A76C, C347A
# B6: 6xAla NEMO containing Cys347 (Cys347 added back into the 7xAla construct) (natural protein, human, UniProt Q9Y6K9 1-419, looked up)
# chain: B1 chain with C54A
# B7: 5xAla NEMO, full-length, expressed in NEMO-deficient mouse fibroblasts (natural protein, human, UniProt Q9Y6K9 1-419, looked up)
# chain: B1 chain
# Experiments:
# [1] = target: IKKβ 680-756 (Homo sapiens) (UniProt O14920); test: ITC; conditions: cited from earlier work
# [2] = target: IKKβ 680-756 (Homo sapiens) (UniProt O14920); test: SPR; conditions: cited from earlier work
# [3] = target: IKKβ 701-745 (Homo sapiens) (UniProt O14920); test: SPR; conditions: cited from earlier work
# [4] = target: the molecule itself; test: cross-linking
# [5] = target: the molecule itself; test: fluorescence polarisation
# [6] = target: the molecule itself; test: cross-linking; remark: listed apart in the source
# Sequence of IKKβ 680-756 (Homo sapiens) (O14920 680-756): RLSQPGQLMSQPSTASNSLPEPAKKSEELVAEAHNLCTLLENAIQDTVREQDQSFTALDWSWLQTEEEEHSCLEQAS
# Sequence of IKKβ 701-745 (Homo sapiens) (O14920 701-745): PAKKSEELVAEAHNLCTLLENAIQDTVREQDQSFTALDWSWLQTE
Molecule,stoichiometry N [4],other results
NEMO 38-196 (from UniProt Q9Y6K9),,Kd [1]: 1000 nM; Kd [2]: 3.4 nM
NEMO 2-200 (from UniProt Q9Y6K9),,Kd [3]: 76 nM
B1,2,
B2,2,Kd [5]: < 5 nM
B3,2,
B4,2,
B5,2,
B6,2,
B7,,stoichiometry N [6]: 2
